This passage reports Kd and PrP-AP binding sites (Bmax) (binding sites) results from patent EP0920630B1.

This assay concerns the target PrPBPs (prion protein binding proteins) on the surface of G8 cells (mouse muscle cell line). Description: Scatchard analysis, bound AP activity on G8 cells.

In turn, “PrP-AP fusion protein (murine PrP fused to secreted human placental heat-stable alkaline phosphatase) (from UniProt P04925 23-229; P05187 23-511)” came in with a dissociation constant (Kd) of 1.48 nM and a PrP-AP binding sites (Bmax) (binding sites) of 100000.

The Kd is the concentration at which binding is half-saturated. The low end stands for tighter binding, the high end for weaker binding.
